Results published in US8076085.

Experiments:
Assay in all cases: inhibition ELISA: serum preincubated with soluble peptide, then preS1 (94-117) coated plate
[1] = target: IgG anti-preS1 (94-117) in serum of HBeAg+ patient with acute resolving HB-infection (FIG. 5b)
[2] = target: IgG anti-preS1 (94-117) in serum of HBeAg+ patient with acute resolving HB-infection (FIG. 6a)
[3] = target: IgG anti-preS1 (94-117) in serum of one HBeAg+ patient with chronic HBV-infection who later spontaneously seroconverted to anti-HBe (FIG. 5a)
[4] = target: IgG anti-preS1 (94-117) in serum of HBeAg+ patient with acute resolving HB-infection (FIG. 6b)
[5] = target: IgG anti-preS1 (94-117) in serum from a HBeAg+ chronic patient (FIG. 7)

Measured: percent inhibition

PASTNRQSGRQPTPISPPLRDSHP [preS1#94-117 peptide (HBV subtypes adw, adw2 and two of three adr subtypes)]
100%: all assays above
